Data reported in paper PMC10700544, “Acetylation regulates the oligomerization state and activity of RNase J, the Helicobacter pylori major ribonuclease” (Nature Communications, 2023).

Biological target: the molecule itself
Assay: crystal structure; crystals from 0.1 M HEPES pH 7.5, 25% wt/v polyethylene glycol 1000; space group P4(1)22; one monomer in the asymmetric unit, tetramer by crystal symmetry

B1: RNase J residues 139–691 (H. pylori strain 26695) with a C-terminal hexa-histidine tag (domain or fragment, Helicobacter pylori strain 26695, UniProt P56185 137-689, looked up)
chain: SKASVKITPLGGLGEIGGNMMVIETPKSAIVIDAGMSFPKEGLFGVDILIPDFSYLHQIKDKIAGIIITHAHEDHIGATPYLFKELQFPLYGTPLSLGLIGSKFDEHGLKKYRSYFKIVEKRCPISVGEFIIEWIHITHSIIDSSALAIQTKAGTIIHTGDFKIDHTPVDNLPTDLYRLAHYGEKGVMLLLSDSTNSHKSGTTPSESTIAPAFDTLFKEAQGRVIMSTFSSNIHRVYQAIQYGIKYNRKIAVIGRSMEKNLDIARELGYIHLPYQSFIEANEVAKYPDNEILIVTTGSQGETMSALYRMATDEHRHISIKPNDLVIISAKAIPGNEASVSAVLNFLIKKEAKVAYQEFDNIHVSGHAAQEEQKLMLRLIKPKFFLPVHGEYNHVARHKQTAISCGVPEKNIYLMEDGDQVEVGPAFIKKVGTIKSGKSYVDNQSNLSIDTSIVQQREEVASAGVFVATIFVNKNKQALLESSQFSSLGLVGFKDEKPLIKEIQGGLEVLLKSSNAEILNNPKKLEDHTRNFIRKALFKKFRKYPAIICHAHSF
notes: the results say 137–691); One monomer in the asymmetric unit; the tetramer (dimer-of-dimers) is generated by crystal symmetry; The CTD (587–691) is poorly ordered in the crystal; also called RNase J 139–691; C1hRSEj; source: E. coli, co-expressed with RhpA 21–465, purified (HiTrap Ni column, HALO resin flow-through, S200 SEC)
stoichiometry N: 4
